These results are taken from patent US20080039336A1.

In the experiment the target is TRPM4 of rat-derived INS-1 and RINm5F cells (endogenous) (rat) (UniProt Q9ESQ5). Description: cell-based or functional assay.
TRPM4 of rat-derived INS-1 and RINm5F cells (endogenous) (rat), sequence (Q9ESQ5 whole entry): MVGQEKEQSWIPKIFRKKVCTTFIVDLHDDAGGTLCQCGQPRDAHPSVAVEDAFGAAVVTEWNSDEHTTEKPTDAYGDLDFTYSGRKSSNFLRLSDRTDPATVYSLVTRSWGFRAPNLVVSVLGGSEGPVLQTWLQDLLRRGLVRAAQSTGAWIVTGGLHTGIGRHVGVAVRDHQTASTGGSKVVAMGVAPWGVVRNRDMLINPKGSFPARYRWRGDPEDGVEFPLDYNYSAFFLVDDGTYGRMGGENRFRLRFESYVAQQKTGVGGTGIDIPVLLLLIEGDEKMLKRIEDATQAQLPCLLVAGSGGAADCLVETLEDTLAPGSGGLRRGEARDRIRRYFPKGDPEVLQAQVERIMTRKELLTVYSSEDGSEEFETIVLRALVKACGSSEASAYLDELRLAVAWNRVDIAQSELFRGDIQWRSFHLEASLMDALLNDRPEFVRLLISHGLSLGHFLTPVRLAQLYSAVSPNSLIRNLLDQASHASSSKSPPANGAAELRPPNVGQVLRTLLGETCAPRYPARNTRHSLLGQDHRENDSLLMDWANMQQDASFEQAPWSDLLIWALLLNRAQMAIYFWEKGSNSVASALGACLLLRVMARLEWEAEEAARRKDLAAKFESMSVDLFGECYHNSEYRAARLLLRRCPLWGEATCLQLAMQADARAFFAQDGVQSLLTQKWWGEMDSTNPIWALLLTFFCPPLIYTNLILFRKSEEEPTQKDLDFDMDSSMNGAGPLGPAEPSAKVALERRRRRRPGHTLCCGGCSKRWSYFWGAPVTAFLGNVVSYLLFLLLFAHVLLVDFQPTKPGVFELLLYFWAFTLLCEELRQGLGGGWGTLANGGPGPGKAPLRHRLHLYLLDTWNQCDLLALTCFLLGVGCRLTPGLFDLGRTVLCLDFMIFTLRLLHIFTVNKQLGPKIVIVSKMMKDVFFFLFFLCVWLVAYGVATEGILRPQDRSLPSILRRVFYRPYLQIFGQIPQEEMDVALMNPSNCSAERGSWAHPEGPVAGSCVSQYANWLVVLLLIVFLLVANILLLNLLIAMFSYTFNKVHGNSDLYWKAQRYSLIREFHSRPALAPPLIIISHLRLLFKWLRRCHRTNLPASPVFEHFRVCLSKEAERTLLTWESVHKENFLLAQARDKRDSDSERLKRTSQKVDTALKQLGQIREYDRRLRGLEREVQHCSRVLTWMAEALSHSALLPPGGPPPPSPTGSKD

In turn, ΔN-TRPM4 (from UniProt Q8TD43 178-1214) showed an insulin secretion of INS-1 cells at 25 mM glucose, fold over basal 4 mM, static incubation (mock-transfected control ~2.2-fold) of 1.3 fold.
